Measurements published in article PMC2171753 (The Journal of Cell Biology, 2005).

B1: GST-EB1_(185-255) (domain or fragment, human, UniProt Q15691 185-255, looked up)
chain: GVGNGDDEAAELMQQVNVLKLTVEDLEKERDFYFGKLRNIELICQENEGENDPVLQRIVDILYATDEGFVI

Legend:
GST-EB1_(185-255) = target: B1; assay: pull-down
SEC = target: the molecule itself; assay: SEC
[1] = target: APC-GFP fusion construct, APC residues 2760–2831 (human, UniProt P25054 2760-2831); assay: pull-down
[2] = target: APC-GFP fusion construct, APC residues 2739–2831 (human, UniProt P25054 2739-2831); assay: pull-down
GFP-APC_(2744-2843) = GFP-APC_(2744-2843) (human, UniProt P25054 2744-2843); assay: pull-down
Sequence of GFP-APC_(2744-2843) (P25054 2744-2843): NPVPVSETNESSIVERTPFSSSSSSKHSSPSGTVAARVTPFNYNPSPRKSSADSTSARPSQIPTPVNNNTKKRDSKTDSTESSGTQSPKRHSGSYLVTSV

Row | Binder | stoichiometry N (SEC) | further results
1 | TPFNYNPSPRKSSADSTSARPSQIPTPVNNNTKKRDSKTDSTESSGTQSP (domain or fragment, human, UniProt P25054 2782-2831, looked up) [APC-GFP fusion construct, APC residues 2782–2831] | – | binding result (GST-EB1_(185-255)): binds
2 | full-length EB1 F216A (natural protein, human, UniProt Q15691 1-268, looked up) MAVNVYSTSVTSDNLSRHDMLAWINESLQLNLTKIEQLCSGAAYCQFMDMLFPGSIALKKVKFQAKLEHEYIQNFKILQAGFKRMGVDKIIPVDKLVKGKFQDNFEFVQWFKKFFDANYDGKDYDPVAARQGQETAVAPSLVAPALNKPKKPLTSSSAAPQRPISTQRTAAAPKAGPGVVRKNPGVGNGDDEAAELMQQVNVLKLTVEDLEKERDAYFGKLRNIELICQENEGENDPVLQRIVDILYATDEGFVIPDEGGPQEEQEEY | 2 | –
3 | full-length EB1 F218A (natural protein, human, UniProt Q15691 1-268, looked up) MAVNVYSTSVTSDNLSRHDMLAWINESLQLNLTKIEQLCSGAAYCQFMDMLFPGSIALKKVKFQAKLEHEYIQNFKILQAGFKRMGVDKIIPVDKLVKGKFQDNFEFVQWFKKFFDANYDGKDYDPVAARQGQETAVAPSLVAPALNKPKKPLTSSSAAPQRPISTQRTAAAPKAGPGVVRKNPGVGNGDDEAAELMQQVNVLKLTVEDLEKERDFYAGKLRNIELICQENEGENDPVLQRIVDILYATDEGFVIPDEGGPQEEQEEY | 2 | –
4 | full-length EB1 Y217A (natural protein, human, UniProt Q15691 1-268, looked up) MAVNVYSTSVTSDNLSRHDMLAWINESLQLNLTKIEQLCSGAAYCQFMDMLFPGSIALKKVKFQAKLEHEYIQNFKILQAGFKRMGVDKIIPVDKLVKGKFQDNFEFVQWFKKFFDANYDGKDYDPVAARQGQETAVAPSLVAPALNKPKKPLTSSSAAPQRPISTQRTAAAPKAGPGVVRKNPGVGNGDDEAAELMQQVNVLKLTVEDLEKERDFAFGKLRNIELICQENEGENDPVLQRIVDILYATDEGFVIPDEGGPQEEQEEY | 2 | –
5 | full-length EB1 E225A (natural protein, human, UniProt Q15691 1-268, looked up) MAVNVYSTSVTSDNLSRHDMLAWINESLQLNLTKIEQLCSGAAYCQFMDMLFPGSIALKKVKFQAKLEHEYIQNFKILQAGFKRMGVDKIIPVDKLVKGKFQDNFEFVQWFKKFFDANYDGKDYDPVAARQGQETAVAPSLVAPALNKPKKPLTSSSAAPQRPISTQRTAAAPKAGPGVVRKNPGVGNGDDEAAELMQQVNVLKLTVEDLEKERDFYFGKLRNIALICQENEGENDPVLQRIVDILYATDEGFVIPDEGGPQEEQEEY | 2 | –
6 | full-length EB1 K220A (natural protein, human, UniProt Q15691 1-268, looked up) MAVNVYSTSVTSDNLSRHDMLAWINESLQLNLTKIEQLCSGAAYCQFMDMLFPGSIALKKVKFQAKLEHEYIQNFKILQAGFKRMGVDKIIPVDKLVKGKFQDNFEFVQWFKKFFDANYDGKDYDPVAARQGQETAVAPSLVAPALNKPKKPLTSSSAAPQRPISTQRTAAAPKAGPGVVRKNPGVGNGDDEAAELMQQVNVLKLTVEDLEKERDFYFGALRNIELICQENEGENDPVLQRIVDILYATDEGFVIPDEGGPQEEQEEY | 2 | –
7 | B1 | – | binding result [1]: binds; binding result [2]: binds; binding result (GFP-APC_(2744-2843)): binds
